In US8841272B2, “Double-stranded RNA-based nanoparticles for insect gene silencing” (Kansas State University Research Foundation, priority 2011, dated 2014):

B1: dsAgCHS1-f1: dsRNA synthesized using residues 2,267 to 2,635 of SEQ ID NO: 1 as the template (nucleic acid, listed as Anopheles gambiae)
DNA: TGAAACGCACATCTTCTTCGATGACGCGTTCGAAATTTCGGACCACAGCGACGAGGACATTCAGTGTAATCGGTTCGTGAAGATTCTTGTCGACACCATCGACGAAGCTGCCTCGGAAGTGCATCAGACCAACATTCGATTGAGACCGCCCAAAAAGTACCCAACACCGTACGGTGGACGACTGGTGTGGACGCTGCCCGGTAAAACGAAGATGATTGCCCACCTGAAGGACAAGGATCGCATCCGGCACCGTAAGCGTTGGTCTCAGGTCATGTACATGTACTATCTGCTCGGCCACCGGCTGATGGAGCTGCCGATTTCCGTCGACCGTAAGGAGGTGATGGCGGAAAACACCTACCTGCTGACGCT
modifications: double-stranded RNA
B2: dsAgCHS2-f1: dsRNA synthesized using residues 3,846 to 4,235 of SEQ ID NO: 3 as the template (nucleic acid, listed as Anopheles gambiae)
DNA: ACACATCGAGTGGTGGTTCAACGTGAAGAACAAGATCAGCTTTGACGAAAGCACGGTCGAGATCATGATCCGGCGCGAGTACCTGGAGCTCGAACCGATCGGTTTGGTGTTTGTGATGTTCTTCGGTTTGATTCTCATCATTCAGTTTGTGGCCATGCTGATGCATCGGTTCGGTACCATCTCCCAGATTCTTGCCTCCACCGAGCTGAACTGGTACTGTTCGAAGAAGGCTAAGGATATGTCACTCGATGCGGAACTGCGCGAGAATGCGGTCGAAATTGCACGTCGACTGCAGCGCCCCAAACCGCAGTGGGACGAGGAAGATCTAGAGGACGAGCAGAAAGCTATTGGACGTCGCGACACGATCCATCGCATTCTCTACCAGCACAA
modifications: double-stranded RNA
B3: dsAgCHS2-f2: dsRNA synthesized using residues 3,331 to 3,719 of SEQ ID NO: 3 as the template (nucleic acid, listed as Anopheles gambiae)
DNA: GCCAGCGCCGAAAAGGAGCAAATCGCACAAATTGCGGCATCGCTCAGCGAAATAAGTGTAAAAATGAAGGCACTGGAAATGAAATTAACCGGCAACGTCAGCGTAATGAGATCAGACGACGAAGATGATGACATCGGTAGTCTCGATATGCATCGTCCGGAAGGTAACCGTGGCCCATCCTCGCCATCCTCCACCTCGGGCGCCGCCTCCCCGATCCAGACGGTGAAAAATGATTCCCTCGAAGAGCCCGAGAAGCAGATTAACTATCTGCCGGATTGGTTGTACGACGTGGATTTGAAAAACGGCGACACTGAGACGATCTCCGCCTCGGAGGAGCAATTCTGGATTGAGCTGATCGAGAAGTATCTGAAGCCGCTCGATCTGTCGGA
modifications: double-stranded RNA
B4: dsAgCHS1-f2: dsRNA synthesized using residues 3,812 to 4,202 of SEQ ID NO: 1 as the template (nucleic acid, listed as Anopheles gambiae)
DNA: CAAAACGACGGACGAGAAGGCGCAGCTGATTCACATTGCCGATGCGCTGGACGCCATTACGAAGAAGATTGAGAATCTGGAAAAGCACATCGACCCGCACGGACATCATACGCGCAAGCGCACTGCGTCGGCGGGGTCGAAGGATCACCATCTCGGCTCGGTGGCGGAGGATACGGAGGACGATGATGAGGATGAAGATTCGGAGACTTCGACGCTGCAGCGCGACGAGCGCGACTTCCTCACCAACCCGTACTGGATCGAGGATCCGGATCTGAAGAAGGGCGAGGTGGACTTTATTTCCAGCACCGAGATCCAGTTCTGGAAGGACCTGATCGATAAGTACCTATACCCGATCGATCAAAACAAGGAGGAACAGGCACGTATTGCGCAC
modifications: double-stranded RNA

The molecules below were run on AgCHS1 (assay: qPCR of AgCHS1 transcript level in mosquito larvae after larval feeding). Details: 3rd-instar larvae fed once a day for 4 days on dsRNA nanoparticles, vs GFP dsRNA nanoparticles.
Type: in vivo, Anopheles gambiae
Procedure: (§1) A group of 15-20 3rd-instar mosquito larvae was transferred into a 500-ml glass beaker containing 100 ml of deionized water. One sixth of the gel slices that were prepared from 32 μg of dsRNA, as described above, were added into each beaker. Approximately an equal amount of the gel slices was used to feed the larvae once a day for a total of four days. Any potential phenotypic changes were visually examined in the larvae during the experiment. The transcript levels of AgCHS1 or AgCHS2, chitin contents, and other phenotypic changes were assessed in the larvae at the end of the experiment (i.e., day 4).
(§2) Total RNA was extracted from mosquito larvae with TRIzol reagent (Invitrogen, Carlsbad, Calif.) and 3.5 μg of total RNA was used for first strand cDNA synthesis using the First Strand cDNA Synthesis kit (Fermentas, Glen Burnie, Md.). The first strand cDNA was then used as template for PCR and qPCR. A gene encoding ribosomal protein S3, AgRPS3, was used as an internal reference. PCR was performed with a PCR Master Mix kit (Fermentas). The qPCR was performed using a Maxima SYBR Green qPCR Master Mix (Fermentas), and the 2^−ΔΔCT method was used to calculate the relative levels of AgCHS1 and AgCHS2 transcripts in the mosquito larvae fed on the food containing the AgCHS1 or AgCHS2 dsRNA-based nanoparticles as compared with the control larvae fed on the food containing the GFP dsRNA-based nanoparticles.
(§3) For data obtained from qPCR, relative expression levels in percentage were calculated by dividing the relative expression value (REV) of each gene in the AgCHS dsRNA-treated larvae by the REV of the same gene in the GFP dsRNA-treated larvae. After the percentage data of the relative AgCHS expression were transformed using arcsine square root transformation, the transformed data were subjected to ANOVA followed by Fisher's least significant difference (LSD) multiple comparisons to separate the means among the treatments using ProStat software (Poly Software International, Pearl River, N.Y.).

In order of falling “repression of the transcript level of AgCHS1” value (shortened to “repression … of AgCHS1”):
1. B1  62.8%
2. B4  52.4%

For B2, the “repression … of AgCHS1” value was “none of these AgCHS2 dsRNAs repressed”.
B3 was tested, and the “repression … of AgCHS1” value was “none of these AgCHS2 dsRNAs repressed”.

The molecules below were run on AgCHS2 (assay: qPCR of AgCHS2 transcript level in mosquito larvae after larval feeding). Details: 3rd-instar larvae fed once a day for 4 days on dsRNA nanoparticles, vs GFP dsRNA nanoparticles.
Type: in vivo, Anopheles gambiae
Procedure: as §1, §2, §3

In order of rising “repression of the transcript level of AgCHS2” value:
1. B1  48.4%
2. B3  48.8%
3. B4  57.9%
4. B2  63.4%
